Experimental data published in paper PMC6934807, “Development of hypoallergenic variants of the major horse allergen Equ c 1 for immunotherapy by rational structure based engineering” (Scientific Reports, 2019).
Substitutions are numbered along the chain they refer to. Names and notes keep the numbering of the source.

T1: recombinant Equ c 1 wild type (Equ c 1.0101) (horse)
T1 chain: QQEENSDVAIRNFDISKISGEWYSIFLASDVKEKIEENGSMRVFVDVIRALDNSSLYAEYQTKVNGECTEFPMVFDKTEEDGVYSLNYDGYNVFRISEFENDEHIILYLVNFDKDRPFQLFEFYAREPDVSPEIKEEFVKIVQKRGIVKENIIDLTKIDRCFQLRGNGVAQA

B1: Equ c 1 Triple 2 (V47K + V110E + F112K) (natural protein)
chain: T1 chain with V47K, V110E, F112K
B2: Equ c 1 Triple 3 (E21Y + V110E + F112K) (natural protein)
chain: T1 chain with E21Y, V110E, F112K
B3: recombinant Equ c 1 wild type (Equ c 1.0101) (natural protein)
chain: T1 chain
modifications: extra vector-derived N-terminal Ala left out; disulfide Cys68-Cys161 (mature numbering, precursor = +15); homodimer at micromolar concentration (Kd 15.6 nM) / extra vector-derived N-terminal Ala left

Columns and labels:
[1] = molecular target: the molecule itself; experiment: cell-based or functional assay
[2] = molecular target: the molecule itself; experiment: native MS; native ESI FT-ICR MS at 40 µM protein, 10 mM ammonium acetate pH 6.9; Kd of Triple 3 estimated from monomer and dimer intensities at this single concentration; dimer to monomers
[3] = molecular target: T1, recombinant Equ c 1 wild type (Equ c …); experiment: SEC; SE-UHPLC, Acquity BEH125 SEC column, PBS (12 mM Na2HPO4, 3 mM NaH2PO4, 150 mM NaCl, pH 7.3), 2 µl of a 40 µM protein solution injected, compared with protein standards; conditions: both partners purified
[4] = molecular target: T1, recombinant Equ c 1 wild type (Equ c …); experiment: native MS; native ESI FT-ICR MS, dilution series 0.1-4.8 µM (monomer) in 10 mM ammonium acetate, diluted samples kept four days at +4 °C, five parallel spectra per concentration; Kd from monomer and dimer ion intensities; dimer to monomers; conditions: both partners purified

| Binder | EC50 of histamine release from stripped basophils passively sensitised with serum A of a horse allergic person [1] [nM] | EC50 of histamine release from stripped basophils passively sensitised with serum B of a horse allergic person [1] [nM] | EC50 of histamine release from stripped basophils passively sensitised with serum C of a horse allergic person [1] [nM] | EC50 of histamine release from stripped basophils passively sensitised with serum D of a horse allergic person [1] [nM] | EC50 of histamine release from stripped basophils passively sensitised with serum E of a horse allergic person [1] [nM] | EC50 of histamine release from stripped basophils passively sensitised with serum F (RefLab's positive control serum) [1] [nM] | EC50 of histamine release from stripped basophils, median of the six sera [1] [nM] | Kd [2] [nM] | stoichiometry N [3] | Kd [4] [nM] |
| --- | --- | --- | --- | --- | --- | --- | --- | --- | --- | --- |
| B1 | 0.11 | 0.24 | 0.22 | 0.18 | 0.84 | 0.72 | 0.23 | – | – | – |
| B2 | 0.29 | 0.42 | 0.52 | 0.26 | 3.7 | 1.1 | 0.47 | ~800000 | – | – |
| B3 | – | – | – | – | – | – | – | – | 2 | 15.6 ± 0.8 |
